Laboratory results published in patent US20140356358A1 (Amgen, published 2014).
Substitutions are numbered along the chain they refer to. Numbers in names are those of the source.

Legend:
[1] = molecular target: T1, human neonatal Fc receptor (hFcRn) (human, UniProt P55899 24-290; P61769 21-119); test: BLI (Octet), association pH 6, dissociation pH 7.4
T1 construct: Biotinylated in the ELISA, Octet and yeast assays; also called human FcRn; huFcRn
Excerpt: To further characterize some of the variant Fc-fragments identified by the phage ELISA, binding of the variant Fc-fragments to FcRn at pH 6 and 7.4 was characterized for a subset of the identified variant Fc-fragments. DNA encoding selected variant Fc-fragment isolates, all from library L5, was introduced into a mammalian expression vector, which was used to transfect 293 6E cells using deacylated PEI essentially as described by Thomas et al. (Proc. Natl. Acad. Sci. 102(16): 5679-5684, 2005), the relevant portions of which are incorporated herein by reference. […] Concentrations were calculated using a standard curve created with a purified Fc fusion protein.
Biotinylated hFcRn at 100 nM was captured on streptavidin (SA) biosensors (ForteBio Inc., 18-5019) off-line at RT for 2 hours. Using these biotinylated hFcRn-coated SA biosensors in the Octet Red® system, association and dissociation of unlabeled proteins can be detected in real time via […] of light. […] Three association and dissociation conditions were set up: (1) association at pH 6 and dissociation at pH 6; (2) association at pH 6 and dissociation at pH 7.4; and (3) association at pH 7.4 and dissociation at pH 7.4. SA biosensors coated with biotinylated hFcRN were dipped into buffer at a specific pH for 1 min and then soaked in the samples containing variant Fc-fragments or controls at a specific pH for 5 min to allow binding to FcRn. The Fc biosensors were then soaked in buffer at a specific pH for 5 minutes more to allow the bound Fc-fragments to dissociate from FcRn. Detection of binding and dissociation of the Fc-fragments was possible through the use of bio-layer interferometry as implemented using the Octet Red® system, so that binding and dissociation were detected in real time.

cynomolgus monkey FcRn [2] = molecular target: T2, cynomolgus monkey FcRn (cynomolgus monkey, UniProt Q8SPV9 24-297; Q8SPW0 21-119, limits assumed); test: SPR competition pH 7.4
T2 construct: also called Cynomolgus FcRn
T2 sequence (Q8SPV9 24-297 limits assumed, chain 1 of 2): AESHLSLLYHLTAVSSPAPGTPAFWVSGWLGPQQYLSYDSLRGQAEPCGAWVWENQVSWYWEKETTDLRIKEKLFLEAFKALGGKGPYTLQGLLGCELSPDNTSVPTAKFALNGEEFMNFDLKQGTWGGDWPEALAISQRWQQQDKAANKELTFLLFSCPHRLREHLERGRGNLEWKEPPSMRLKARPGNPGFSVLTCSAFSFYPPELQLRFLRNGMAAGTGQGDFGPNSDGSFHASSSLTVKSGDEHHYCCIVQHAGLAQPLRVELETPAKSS
T2 sequence (Q8SPW0 21-119 limits assumed, chain 2 of 2): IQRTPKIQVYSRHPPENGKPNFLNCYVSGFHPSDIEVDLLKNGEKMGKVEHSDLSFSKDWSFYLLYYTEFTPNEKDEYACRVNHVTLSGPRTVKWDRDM
Description: (§1) Binding of variant Fc-fragments to human and cynomolgus monkey FcRn was tested using a BIAcore® T100 analysis system (GE Healthcare Bio-Sciences AB Private Limited Liability Company, Uppsala, Sweden) at both pH 5.5 and pH 7.4. The test consisted of incubating various concentrations of the variant Fc-fragments or control Fc-fragments with a fixed amount of human or cynomolgus monkey FcRn under binding conditions and subsequently measuring the amount of free, unbound FcRn in these mixtures by binding to a surface (in a flow cell of a CM5 (Biacore) chip) on which an Fc-fragment was immobilized. […] Thus, the amount of unbound FcRn in the mixture was quantitatively ascertained by surface plasmon resonance through use of the BIAcore® T100 analysis system. […] Initially, a group of 23 variant-Fc-fragments (Fc-5-1 being considered a control) identified in the experiments described above were tested for binding to human FcRn.
(§2) As positive controls, 10 mM human and cynomolgus monkey FcRn were each incubated in the same solution, for the same time, and at the same temperature described immediately above, but without an added Fc-fragment.

[3] = molecular target: T1, human neonatal Fc receptor (hFcRn); test: SPR competition pH 7.4
Description: as §1, §2

cynomolgus monkey FcRn [4] = molecular target: T2, cynomolgus monkey FcRn; test: SPR competition pH 5.5
Description: as §1
(§3) To obtain a reasonable signal for the different molecules and conditions tested, different assay conditions were used. For assays at pH 5.5, 10 nM of human or cynomolgus monkey FcRn was mixed with serial dilutions of the variant and control Fc-fragments being tested (which ranged from 0.1˜2,000 nM) and incubated for 1 hour at room temperature in 10 mM sodium acetate, pH 5.5, 150 mM NaCl, 0.005% P20, 0.1 mg/mL BSA. As positive controls, […] human and cynomolgus monkey FcRn were each incubated in the same solution, for the same time, and at the same temperature described immediately above, but without an added Fc-fragment.

[5] = molecular target: T1, human neonatal Fc receptor (hFcRn); test: SPR competition pH 5.5
Description: as §1, §3

cynomolgus monkey FcRn [6] = molecular target: T2, cynomolgus monkey FcRn; test: SPR competition pH 5.5; remark: listed apart in the source
[7] = molecular target: T1, human neonatal Fc receptor (hFcRn); test: SPR competition pH 5.5; remark: listed apart in the source
cynomolgus monkey FcRn [8] = molecular target: T2, cynomolgus monkey FcRn; test: SPR competition pH 7.4; remark: listed apart in the source
[9] = molecular target: T1, human neonatal Fc receptor (hFcRn); test: SPR competition pH 7.4; remark: listed apart in the source

T1 sequence (P55899 24-290 limits assumed, chain 1 of 2): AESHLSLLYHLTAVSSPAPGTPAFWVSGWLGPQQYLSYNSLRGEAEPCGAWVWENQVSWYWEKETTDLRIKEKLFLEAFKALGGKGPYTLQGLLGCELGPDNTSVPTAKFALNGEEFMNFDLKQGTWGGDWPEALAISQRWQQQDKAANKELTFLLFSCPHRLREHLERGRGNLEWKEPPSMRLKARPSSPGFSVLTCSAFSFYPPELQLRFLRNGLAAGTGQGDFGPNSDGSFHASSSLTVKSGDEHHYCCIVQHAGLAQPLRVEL
T1 sequence (P61769 21-119 limits assumed, chain 2 of 2): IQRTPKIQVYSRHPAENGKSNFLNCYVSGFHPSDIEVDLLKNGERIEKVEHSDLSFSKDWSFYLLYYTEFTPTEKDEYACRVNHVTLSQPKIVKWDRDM

B1: variant Fc-fragment 5-1-8 (other)
chain: EPKSCDKTHTCPPCPAPELLGGPSVFLFPPKPKDTLMISRTPEVTCVVVDVSHEDPEVKFNWYVDGVEVHNAKTKPREEQYNSTYRVVSVLTVLHQDWLNGKEYKCKVSNKALPAPIEKTISKAKGQPREPQVYTLPPSRDELTKNQVSLTCLVKGFYPSDIAVEWESNGQPENNGGCGMPIEFCGGYKTTPPVLDSDGSFFLYSKLTVDKSRWQQGNVFSCSVMHEALHNHYTQKSLSLSPGK
[1]
  binding result: binds

B2: variant Fc-fragment Fc-5-1 (other)
chain: EPKSCDKTHTCPPCPAPELLGGPSVFLFPPKPKDTLMISRTPEVTCVVVDVSHEDPEVKFNWYVDGVEVHNAKTKPREEQYNSTYRVVSVLTVLHQDWLNGKEYKCKVSNKALPAPIEKTISKAKGQPREPQVYTLPPSRDELTKNQVSLTCLVKGFYPSDIAVEWESNGGCGMPIEFCGGGQPENNYKTTPPVLDSDGSFFLYSKLTVDKSRWQQGNVFSCSVMHEALHNHYTQKSLSLSPGK
notes: library L5 isolate; also called variant 5-1
Cynomolgus monkey FcRn [2]
  EC50: 42 nM
[3]
  EC50: 45 nM
Cynomolgus monkey FcRn [4]
  EC50: 2.3 nM
[5]
  EC50: 2.6 nM

B3: variant Fc-fragment Fc-5-106-M4I (other)
chain: B2 chain with G173V, M174F, P175N, E177F, F178N
Cynomolgus monkey FcRn [6]
  EC50: 3.2 nM
[7]
  EC50: 2.6 nM
Cynomolgus monkey FcRn [8]
  EC50: 970 nM

B4: variant Fc-fragment Fc-5-106-M4T (other)
chain: B2 chain with G173V, M174F, P175N, I176T, E177F, F178N
Cynomolgus monkey FcRn [6]
  EC50: 8.3 nM
[7]
  EC50: 10 nM

B5: variant Fc-fragment Fc-5-106 (other)
chain: B2 chain with G173V, M174F, P175N, I176M, E177F, F178N
notes: soluble elsewhere
Cynomolgus monkey FcRn [6]
  EC50: 4.6 nM
[7]
  EC50: 5.4 nM
Cynomolgus monkey FcRn [4]
  EC50: 3.6 nM
[5]
  EC50: 5.3 nM

B6: variant Fc-fragment Fc-5-106-M4L (other)
chain: B2 chain with G173V, M174F, P175N, I176L, E177F, F178N
Cynomolgus monkey FcRn [6]
  EC50: 2.8 nM
[7]
  EC50: 2.3 nM
Cynomolgus monkey FcRn [8]
  EC50: 710 nM
[9]
  EC50: 650 nM

B7: variant Fc-fragment Fc-5-106-M4V (other)
chain: B2 chain with G173V, M174F, P175N, I176V, E177F, F178N
Cynomolgus monkey FcRn [6]
  EC50: 5 nM
[7]
  EC50: 6.2 nM

B8: variant Fc-fragment 5-1-7 (other)
chain: EPKSCDKTHTCPPCPAPELLGGPSVFLFPPKPKDTLMISRTPEVTCVVVDVSHEDPEVKFNWYVDGVEVHNAKTKPREEQYNSTYRVVSVLTVLHQDWLNGKEYKCKVSNKALPAPIEKTISKAKGQPREPQVYTLPPSRDELTKNQVSLTCLVKGFYPSDIAVEWESNGQPENGGCGMPIEFCGGNYKTTPPVLDSDGSFFLYSKLTVDKSRWQQGNVFSCSVMHEALHNHYTQKSLSLSPGK
[1]
  binding result: binds
